Positions count from the first letter of the chain named. Names and notes keep the numbering of the source. Values belong to the binder of their own block, whether it stands above or below them.
Key:
[1] = molecular target: T1, Recombinant Human DLL4 (delta-like protein 4) (human, UniProt Q9NR61 27-524); assay: ELISA, DLL4 coated on plate, Fab at 50 nM (2-fold dilution series), absorbance at 450 nm
T1 construct: Bought recombinant human DLL4 coated on the ELISA plate; also called rHuman DLL4

[2] = molecular target: T1, Recombinant Human DLL4 (delta-like …); assay: ELISA, DLL4 coated on plate, Fab at 25 nM (2-fold dilution series), absorbance at 450 nm
[3] = molecular target: T1, Recombinant Human DLL4 (delta-like …); assay: ELISA, DLL4 coated on plate, Fab at 100 nM (2-fold dilution series), absorbance at 450 nm
[4] = molecular target: T1, Recombinant Human DLL4 (delta-like …); assay: ELISA, DLL4 coated on plate, Fab at 12.5 nM (2-fold dilution series), absorbance at 450 nm
[5] = molecular target: T2, Recombinant Human DLL4 (R&D Systems Cat#1506-D4/CF) (human, UniProt Q9NR61 27-524); assay: ECL (Meso Scale Discovery) multispot binding assay, DLL4 immobilised, Fab at 100 nM
T2 construct: Bought recombinant protein; also called delta-like protein 4; Delta-like 4

[6] = molecular target: T3, Recombinant Human DLL4 (R&D Systems Cat#1506-D4/CF) (human, UniProt Q9NR61 27-524); assay: ECL (MSD) multispot binding assay, DLL4 spotted on plate, Fab in solution
T3 construct: Bought recombinant protein; also called delta-like protein 4; rHuman DLL4

- ELISA signal [1]: 0.23
- ELISA signal [2]: 0.2
- ELISA signal [3]: 0.26
- ELISA signal [4]: 0.18
B1: Fab VH5-51_IGHD5-18*01>3_IGHJ4*01 G100K/G104T S28R (KT S28R) & V3-4_IGLJ1*01 (wildtype) (Fab, V domains shown)
VH: EVQLVQSGAEVKKPGESLKISCKGSGYRFTSYWIGWVRQMPGKGLEWMGIIYPGDSDTRYSPSFQGQVTISADKSISTAYLQWSSLKASDTAMYYCARRKYSYTYDYFDYWGQGTLVTVSS
VL: QTVVTQEPSFSVSPGGTVTLTCGLSSGSVSTSYYPSWYQQTPGQAPRTLIYSTNTRSSGVPDRFSGSILGNKAALTITGAQADDESDYYCVLYMGSGISYVFGTGTKVTVL
notes: Fab; Expressed in E. coli with CH1 (plasmid A, His6 and Flag tags) and lambda CL (plasmid E); also called H:KT S28R & L:wt

- ELISA signal [1]: 0.79
- ELISA signal [2]: 0.62
- ELISA signal [3]: 0.99
- ELISA signal [4]: 0.41
B2: Fab VH5-51_IGHD5-18*01>3_IGHJ4*01 G100K/G104T G24L/S28R/G35V (KT LRV) & V3-4_IGLJ1*01 V91L/S96P S52T (Fab, V domains shown)
VH: B1 VH with G24T, G35V
VL: B1 VL with S52T, V91L, S96P
notes: Fab; Expressed in E. coli with CH1 (plasmid A, His6 and Flag tags) and lambda CL (plasmid E); also called G100K/G104T G24L/S28R/G35V & V91L/S96P S52T

- ELISA signal [1]: 0.17
- ELISA signal [2]: 0.18
- ELISA signal [3]: 0.17
- ELISA signal [4]: 0.19
B3: Fab VH5-51_IGHD5-18*01>3_IGHJ4*01 G104T & V3-4_IGLJ1*01 (wildtype) (Fab, V domains shown)
VH: B1 VH with R28S, K100G
VL: B1 VL
notes: Fab; Expressed in E. coli with CH1 (plasmid A, His6 and Flag tags) and lambda CL (plasmid E); also called G104T & Wildtype

- ELISA signal [1]: 0.74
- ELISA signal [2]: 0.6
- ELISA signal [3]: 0.95
- ELISA signal [4]: 0.43
B4: Fab VH5-51_IGHD5-18*01>3_IGHJ4*01 G100K/G104T G24A/S28R/G35V (KT ARV) & V3-4_IGLJ1*01 V91L/S96P S52V (Fab, V domains shown)
VH: B1 VH with G24T, G35V
VL: B1 VL with S52V, V91L, S96P
notes: Fab; Expressed in E. coli with CH1 (plasmid A, His6 and Flag tags) and lambda CL (plasmid E); The light-chain S52 variants were made on the KT TRV heavy chain (T0104); also called G100K/G104T G24A/S28R/G35V & V91L/S96P S52V

- ECL signal [5]: 10300
B5: Fab VH5-51_IGHD5-18*01>3_IGHJ4*01 G100K/G104T (H:KT) & V3-4_IGLJ1*01 S30A (Fab, V domains shown)
VH: B1 VH with R28S
VL: B1 VL with S30A
notes: Fab expressed in E. coli; Plasmid A adds CH1 with His6 and Flag tags to the heavy chain; Plasmid E adds lambda CL to the light chain; also called G100K/G104T & S30A

- ECL signal [5]: 11700
B6: Fab VH5-51_IGHD5-18*01>3_IGHJ4*01 G100K/G104T (H:KT) & V3-4_IGLJ1*01 S26A (Fab, V domains shown)
VH: B1 VH with R28S
VL: B1 VL with S26A
notes: Fab expressed in E. coli; Plasmid A adds CH1 with His6 and Flag tags to the heavy chain; Plasmid E adds lambda CL to the light chain; also called G100K/G104T & S26A

- ELISA signal [1]: 0.81
- ELISA signal [2]: 0.67
- ELISA signal [3]: 0.96
- ELISA signal [4]: 0.47
B7: Fab VH5-51_IGHD5-18*01>3_IGHJ4*01 G100K/G104T G24L/S28R/G35V (KT LRV) & V3-4_IGLJ1*01 V91L/S96P S52Q (Fab, V domains shown)
VH: B1 VH with G24T, G35V
VL: B1 VL with S52Q, V91L, S96P
notes: Fab; Expressed in E. coli with CH1 (plasmid A, His6 and Flag tags) and lambda CL (plasmid E); also called G100K/G104T G24L/S28R/G35V & V91L/S96P S52Q

- ECL signal [5]: 9630
B8: Fab VH5-51_IGHD5-18*01>3_IGHJ4*01 G100K/G104T (H:KT) & V3-4_IGLJ1*01 L24A (Fab, V domains shown)
VH: B1 VH with R28S
VL: B1 VL with L24A
notes: Fab expressed in E. coli; Plasmid A adds CH1 with His6 and Flag tags to the heavy chain; Plasmid E adds lambda CL to the light chain; also called G100K/G104T & L24A

- ECL signal [5]: 10200
B9: Fab VH5-51_IGHD5-18*01>3_IGHJ4*01 G100K/G104T (H:KT) & V3-4_IGLJ1*01 S25A (Fab, V domains shown)
VH: B1 VH with R28S
VL: B1 VL with S25A
notes: Fab expressed in E. coli; Plasmid A adds CH1 with His6 and Flag tags to the heavy chain; Plasmid E adds lambda CL to the light chain; also called G100K/G104T & S25A

- ELISA signal [1]: 0.79
- ELISA signal [2]: 0.59
- ELISA signal [3]: 1
- ELISA signal [4]: 0.43
B10: Fab VH5-51_IGHD5-18*01>3_IGHJ4*01 G100K/G104T G24A/S28R/G35V (KT ARV) & V3-4_IGLJ1*01 V91L/S96P S52P (Fab, V domains shown)
VH: B1 VH with G24T, G35V
VL: B1 VL with S52P, V91L, S96P
notes: Fab; Expressed in E. coli with CH1 (plasmid A, His6 and Flag tags) and lambda CL (plasmid E); also called G100K/G104T G24A/S28R/G35V & V91L/S96P S52P

- ELISA signal [1]: 0.19
- ELISA signal [2]: 0.18
- ELISA signal [3]: 0.2
- ELISA signal [4]: 0.19
B11: Fab VH5-51_IGHD5-18*01>3_IGHJ4*01 G100K & V3-4_IGLJ1*01 (wildtype) (Fab, V domains shown)
VH: B1 VH with R28S, T104G
VL: B1 VL
notes: Fab; Expressed in E. coli with CH1 (plasmid A, His6 and Flag tags) and lambda CL (plasmid E); also called G100K & Wildtype

- ELISA signal [1]: 0.81
- ELISA signal [2]: 0.58
- ELISA signal [3]: 1
- ELISA signal [4]: 0.45
B12: Fab VH5-51_IGHD5-18*01>3_IGHJ4*01 G100K/G104T G24T/S28R/G35V (KT TRV) & V3-4_IGLJ1*01 V91L/S96P (LP) (Fab, V domains shown)
VH: B1 VH with G24T, G35V
VL: B1 VL with V91L, S96P
notes: Fab; Expressed in E. coli with CH1 (plasmid A, His6 and Flag tags) and lambda CL (plasmid E); also called H:KT TRV & L:LP

- ECL signal [6]: 1030
- Signal/Blank [6]: 4.9
B13: Fab VH1-46_IGHD6-6*01_IGHJ1*01 S102A/S103P/S104F (APF) & L6_IGKJ1*01 Y32S (Fab, V domains shown)
VH: QVQLVQSGAEVKKPGASVKVSCKASGYTFTSYYMHWVRQAPGQGLEWMGIINPSGGSTSYAQKFQGRVTMTRDTSTSTVYMELSSLRSEDTAVYYCAREEYAPFSAEYFQHWGQGTLVTVSS
VL: EIVLTQSPATLSLSPGERATLSCRASQSVSSSLAWYQQKPGQAPRLLIYDASNRATGIPARFSGSGSGTDFTLTISSLEPEDFAVYYCQQRSNWPPWTFGQGTKVEIKR
notes: Tested as a Fab; Expressed in E. coli from Plasmid A (CH1 with His6 and Flag tags) and Plasmid C (kappa CL); also called APF & Y32S

- ECL signal [6]: 83100
- Signal/Blank [6]: 351
B14: Fab VH1-46_IGHD6-6*01_IGHJ1*01 S102A/S103P/S104F/H111F (APFF) & L6_IGKJ1*01 S28V (Fab, V domains shown)
VH: B13 VH with H111F
VL: B13 VL with S28V, S32Y
notes: Tested as a Fab; Expressed in E. coli from Plasmid A (CH1 with His6 and Flag tags) and Plasmid C (kappa CL); also called APFF & S28V

- ECL signal [6]: 124000
- Signal/Blank [6]: 314
B15: Fab VH1-46_IGHD6-6*01_IGHJ1*01 S102A/S103P/S104F/H111F (APFF) & L6_IGKJ1*01 S28K (Fab, V domains shown)
VH: B13 VH with H111F
VL: B13 VL with S28K, S32Y
notes: Tested as a Fab; Expressed in E. coli from Plasmid A (CH1 with His6 and Flag tags) and Plasmid C (kappa CL); also called APFF & S28K

- ECL signal [6]: 183000
- Signal/Blank [6]: 533
B16: Fab VH1-46_IGHD6-6*01_IGHJ1*01 S102A/S103P/S104F/H111F (APFF) & L6_IGKJ1*01 S28G (Fab, V domains shown)
VH: B13 VH with H111F
VL: B13 VL with S28G, S32Y
notes: Tested as a Fab; Expressed in E. coli from Plasmid A (CH1 with His6 and Flag tags) and Plasmid C (kappa CL); also called APFF & S28G

- ECL signal [6]: 134000
- Signal/Blank [6]: 537
B17: Fab VH1-46_IGHD6-6*01_IGHJ1*01 S102A/S103P/S104F/H111F (APFF) & L6_IGKJ1*01 S28F (Fab, V domains shown)
VH: B13 VH with H111F
VL: B13 VL with S28F, S32Y
notes: Tested as a Fab; Expressed in E. coli from Plasmid A (CH1 with His6 and Flag tags) and Plasmid C (kappa CL); also called APFF & S28F

From patent publication US20120316071A1 (published 2012)
